This sample holds only a part of the variants without activity.
B1: TPR 5TU (parent)
chain: GGAUCUUCUCGAUCUAACAAAAAAGACAAAUCUGCCACAAAGCUUGAGAGCAUCUUCGGAUGCAGAGGCGGCAGCCUUCGGUGGCGCGAUAGCGCCAACGUUCUCAACUAUGACACGCAAAACGCGUGCUCCGUUGAAUGGAGUUUAUCAUG

Variants of: B1
Experiment: polymerase ribozyme fitness, log enrichment relative to wild type (log ratio); higher = more active; in vitro selection for triplet polymerase activity
In short: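 In triplicate, a single round of in vitro selection was run on each mutant library, PCR-built and transcribed, covering one subunit of a heterodimeric triplet polymerase ribozyme. Frozen incubation at −7 °C followed annealing with a biotinylated primer, partner subunit and triplets, and extended constructs were then gel-excised, streptavidin-captured and taken through RT-PCR. Fitness is the logarithm of genotype enrichment over wild-type enrichment, from inverse-variance-weighted replicate averages of Illumina-sequenced inputs and outputs. […] only genotypes with ≥10 input reads and ≥1 read per output were kept.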

Variant | polymerase ribozyme fitness (log ratio)
A12C A23G U31C U55A | ≤ -4.2
A12G U13C C96A | -0.909
A12G G59A G94C | -0.564
G11C A12U C14A A28G A52C G62C U78A G112C | ≤ -4.2
A12G G83C | -0.586
A12C A29U A66G U101G C131G | ≤ -4.2
G11C G48A A52G C96U A113G C118U G141U A142C U151G | ≤ -4.2
G11U G25C G71C C95G C103A C116G | ≤ -4.2
G11C G42U U55G C76U | ≤ -4.2
G11U A37U C87A | -4.14
A12G A41C A47C C72A C85U G133A A150U | ≤ -4.2
A12G A29U U31A G67U C72A G92U A137G | ≤ -4.2
G11C A115C | -2.86
A12C C85G | -2.59
G11U U56A C79G C87G C96U A142G | ≤ -4.2
A12G C87G | -3.83
A12G C87U | -0.54
A12C C93G A98U | -3.05
A12C G59A G84A C118U A121G A122C G126U | -3.86
G11C G50U G84U A97G | -3.09
A12G C95U | 0.599

Variant | polymerase ribozyme fitness (log ratio)
A12G G48C U56A G70A G83U | ≤ -4.2
A12C A142C | -1.32
A12C A17U U53A C96A U139G | -3.83
A12G C54G C116U | -0.574
G11C G46A G58A G83A | -3.26
G11U C93U A119C C149U | -3.06
A12G G58A A91U U109G | -3.78
A12C A23C C54A G81U G92C C99A | ≤ -4.2
G11C A23G A91G C95U A121G | -3.82
G11C A52G G84A G133C G141A | ≤ -4.2
A12C U55G A97G C105U | -3.12
G11C G46C G59C G92U | -3.55
G11A G92U | -1.16
A12C G133C U145A | -1.11
A12C A24G C85U C95U A120G | ≤ -4.2
A12G A41U C85U U101G C105A G140U G152U | -4.09
A12C C96U | -0.42
A12G C63U | -0.0387
A12C C38A C93U | -1.62
A12C G86C A106U A115U U144A | ≤ -4.2
G11U C32U G84A C85A C105U C132U U139G U151G | -4.14

Variant | polymerase ribozyme fitness (log ratio)
G11U U56A A64G C118U A121U | ≤ -4.2
A12C G50C A66C C79G C93U C95U U139C A147U | ≤ -4.2
A12G G83U G92U A142G | -2.93
G11U C14U C72U G143A | ≤ -4.2
G11C A39U A73U C96U | ≤ -4.2
A12G C85A | -1.31
A12G A29U U44C G50C A91C C93G G94C C116U U144A | ≤ -4.2
G11A G50U U82C G86A C116A | -3.47
A12G C38A C96G | -0.0836
A12G A47C G58C C69A C93A U144C | -3.84
G11A U15G G46A A47G A60G G92C C96A | ≤ -4.2
A12G A98U | -0.71
A12C U101G A137G | -0.888
G11C C36U U78C C85G A120C C123A G124A U151C | ≤ -4.2
G11C A20U C36U A60G C93G | ≤ -4.2
A12C A26C G92C | -3.66
A12G C116G | 0.204
G11C C14G A26U C105G U134G | ≤ -4.2
A12C A52G | -0.179
A12G A24G C35A U44G G50C G71C G124A | ≤ -4.2
A12G C54U C69G U145G | -4.06

Variant | polymerase ribozyme fitness (log ratio)
G11A G67A C79G C87A C114G A137G | ≤ -4.2
G11C A40G G84A A97C G126A | ≤ -4.2
G11U A66C C76U U90G U102G U148G | ≤ -4.2
G11C A22U A30G A37C A91G C93A A98C C118G | ≤ -4.2
A12G C51G A52C C63G | ≤ -4.2
A12C U61G C75G C96U C131U G140U G141A | ≤ -4.2
G11U C51U A113U C132A U139G U146A | ≤ -4.2
G11U A47G U53A | -2.54
A12C A20U U53C A89G | -3.96
G11A G25C G50A A52G C75G U90G C103U U144A | ≤ -4.2
A12C U15C A40U C99G | -0.411
G11U A52G A60G G83U | -3.33
A12G C14U G92U U111C A138U | ≤ -4.2
A12G G58U C116U A150G | -1.58
A12C C38G C85A C116A A120G | -1.83
G11U A23U | ≤ -4.2
G11A U55A U101G | -1.01
G11C G25C A28G C36G C75U C96U A115U A122U | -3.98
A12C A19U U31G A41C C93A G141A | -3.98
A12C C14G A26U A49C G59A C131A | ≤ -4.2

Reference: the RNAGym collection of RNA variant scans (doi:10.1073/pnas.2313332121)
